How the values were obtained:
[1] = target: T1, ZIKV (prM80E) with a C-terminal myc-myc-hexahistidine tag (Zika virus, UniProt A0A024B7W1 104-694); experiment: SPR, mAb captured, 37C, pH 7.4
T1 construct: also called ZIKV (prM80E)-mmH; ZIKV-mmH

[2] = target: ZIKV envelope glycoprotein (E) of strain FLR (Colombia 2015) (Zika virus); experiment: cell-based or functional assay
[3] = target: ZIKV envelope glycoprotein (E) of strain PRVABC59 (Puerto Rico 2015) (Zika virus); experiment: cell-based or functional assay
[4] = target: ZIKV envelope glycoprotein (E) of strain MR766 (Uganda 1947) (Zika virus, UniProt Q32ZE1 291-790); experiment: cell-based or functional assay
[5] = target: T2, ZIKV prM/E polyprotein on virus-like particles (VLPs) from HEK293T/17 cells (Zika virus, UniProt A0A024B7W1 123-795); experiment: MSD ECL, VLPs on plate
T2 construct: also called ZIKV prM/E VLPs; Zika prM/E VLPs

[6] = target: T1, ZIKV (prM80E) with a C-terminal …; experiment: SPR, mAb captured, 25C
[7] = target: T1, ZIKV (prM80E) with a C-terminal …; experiment: SPR, mAb captured, 37C
[8] = target: T1, ZIKV (prM80E) with a C-terminal …; experiment: SPR, mAb captured, 37C; remark: listed apart in the source
[9] = target: T1, ZIKV (prM80E) with a C-terminal …; experiment: SPR, mAb captured, 37C, pH 5.0 chase
[10] = target: T1, ZIKV (prM80E) with a C-terminal …; experiment: SPR, mAb captured, 37C, pH 5.5 chase
[11] = target: T1, ZIKV (prM80E) with a C-terminal …; experiment: SPR, mAb captured, 37C, pH 6.0 chase
[12] = target: T1, ZIKV (prM80E) with a C-terminal …; experiment: SPR, mAb captured, 37C; remark: listed apart in the source
[13] = target: ZIKV E protein with escape mutations T311I and K369E (Zika virus); experiment: cell-based or functional assay

B1: H4H25703N (antibody, V domains shown)
VH: QVQLVESGGGVVQPGRSLRLSCAASGFTFNYYGMHWVRQAPGKGLEWVAVISYDGTNKYYADSVKGRFTTSRDNSKNTLYLQMNSLRAEDTALYYCARDRGGRFDYWGQGIQVTVSS
VL: EIVLTQSPDTLSLSPGERATLSCRASQSVSSNYLAWYQQKPGQAPRLLIYGASSRATGIPDRFSGSGSGTDFTLTISRLEPEDFAVYYCQRYGTSPLTFGGGTKVEIKR
In the case of B1, the koff [1] is reported as 0.00211 s⁻¹, the t½ [1] is reported as 5.47 min and the “neutralization IC50, Vero cells” value [2] is reported as 61.9 pM. The “neutralization IC50, Vero cells” value [3] was 251 pM, the “neutralization IC50, Vero cells” value [4] was 44.5 pM and the EC50 [5] was 0.0846 nM. For the same binder, the Kd [6] was 0.542 nM, the koff [6] was 0.000307 s⁻¹ and the kon [6] was 566000 M⁻¹ s⁻¹. The t½ [6] was 37.6 min, the “t½ pH 7.4/t½ pH 6.0” value [7] was 1.3 and the Kd [8] was 2.39 nM. The koff [8] was 0.00177 s⁻¹, the kon [8] was 738000 M⁻¹ s⁻¹ and the t½ [8] was 6.5 min. The koff [9] was 0.0028 s⁻¹, the t½ [9] was 4.1 min and the koff [10] was 0.00326 s⁻¹. It also gave a t½ [10] of 3.54 min, a koff [11] of 0.00283 s⁻¹ and a t½ [11] of 4.08 min. For the same binder, the “t½ pH 7.4/t½ pH 5.0” value [12] was 1.3, the “t½ pH 7.4/t½ pH 5.5” value [12] was 1.5 and the “IC50 (read off the curve)” value [13] was roughly 1 nM.

Reference: patent US20180016324A1 (Regeneron, published 2018)
